This is an account of results in patent publication US20230365705A1 (DYNAMICURE BIOTECHNOLOGY, published 2023).

Assay [1] has as its target T1, Human CD93 on cells (human CD93 expressing CHO cells; HUVEC, U937 and KG1a cells) (human, UniProt Q9NPY3 22-652).
T1 construct: whole, on cells; also called hCD93 expressing CHO cells; hCD93 CHO cells
T1 sequence (looked up): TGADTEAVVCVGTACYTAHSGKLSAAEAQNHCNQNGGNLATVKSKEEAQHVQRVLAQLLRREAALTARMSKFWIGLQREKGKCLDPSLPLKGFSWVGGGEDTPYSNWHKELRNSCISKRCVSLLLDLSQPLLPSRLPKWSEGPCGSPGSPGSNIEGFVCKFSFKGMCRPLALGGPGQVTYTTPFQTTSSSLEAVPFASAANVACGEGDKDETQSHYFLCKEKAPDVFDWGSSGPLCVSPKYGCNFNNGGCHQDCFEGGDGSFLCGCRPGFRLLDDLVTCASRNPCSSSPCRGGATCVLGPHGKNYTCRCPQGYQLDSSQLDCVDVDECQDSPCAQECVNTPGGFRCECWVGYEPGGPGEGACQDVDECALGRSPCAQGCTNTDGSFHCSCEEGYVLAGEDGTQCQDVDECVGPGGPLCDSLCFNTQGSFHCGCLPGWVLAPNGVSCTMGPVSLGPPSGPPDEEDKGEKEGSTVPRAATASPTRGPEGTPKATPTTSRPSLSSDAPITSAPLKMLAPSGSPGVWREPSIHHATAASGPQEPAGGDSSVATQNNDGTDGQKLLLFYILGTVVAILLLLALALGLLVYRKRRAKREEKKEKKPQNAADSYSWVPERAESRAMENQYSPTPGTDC
The assay is described as follows: summary table, column FACS (CHO-hCD93 cells); 4 weeks at 40 C.

The target in assay [2] is T1, Human CD93 on cells (human CD93 …). The assay is described as follows: summary table, column FACS (HUVEC cells).
For assay [3], the target named is T2, Human CD93 recombinant protein (Sino Biological Inc, Catalog #12589-H08H) (human, UniProt Q9NPY3 22-580).
T2 construct: Biotinylated (EZ-LINK NHS-PEG4 biotin) in the BLI assays; also called hCD93; His-tagged human CD93
T2 sequence (looked up): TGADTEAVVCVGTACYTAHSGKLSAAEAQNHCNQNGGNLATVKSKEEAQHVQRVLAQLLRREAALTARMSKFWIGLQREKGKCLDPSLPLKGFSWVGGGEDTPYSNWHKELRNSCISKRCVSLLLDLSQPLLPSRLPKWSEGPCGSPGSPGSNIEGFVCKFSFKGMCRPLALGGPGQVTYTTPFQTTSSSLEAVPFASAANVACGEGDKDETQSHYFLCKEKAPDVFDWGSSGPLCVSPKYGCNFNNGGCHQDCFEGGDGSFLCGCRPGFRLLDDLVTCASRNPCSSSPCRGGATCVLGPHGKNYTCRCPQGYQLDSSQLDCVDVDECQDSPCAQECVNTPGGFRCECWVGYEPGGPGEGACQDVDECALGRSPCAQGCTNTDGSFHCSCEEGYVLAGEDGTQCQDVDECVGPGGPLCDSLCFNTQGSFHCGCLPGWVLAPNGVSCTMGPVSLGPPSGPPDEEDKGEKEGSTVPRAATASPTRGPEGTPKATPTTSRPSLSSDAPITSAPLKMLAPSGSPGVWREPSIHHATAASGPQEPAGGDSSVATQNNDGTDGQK
Briefly: summary table, column Octet (hCD93). For orientation: BLI is a label-free optical method that tracks binding on a fibre tip over time.

The target in assay [4] is T2, Human CD93 recombinant protein (Sino …). Briefly: summary table, column ELISA (hCD93).
Assay [5] has the same target. Briefly: ELISA, His-tagged human CD93 coated, OD450; antibody stored 4 weeks at 40 C. How it is done:
His-tagged human CD93 was coated onto a 96 well plate at 1 μg/mL in 1×PBS overnight at 4° C. The plate was washed with ELISA wash buffer (Boston BioProduct, Inc.) and the wells were blocked with ELISA blocking buffer for 1 hour at 37° C. […] The plate was washed with ELISA wash Buffer. HRP-conjugated anti-human Fc antibody was incubated for 1 hour at 37° C. The plate was washed with ELISA wash Buffer. HRP substrate was added for indirect detection of the antibodies binding to CD93.
Background: An ELISA detects its analyte on a solid surface through an enzyme-linked reagent.

Assay [6] concerns the target T1, Human CD93 on cells (human CD93 …). The assay is described as follows: flow cytometry titration, KG1a cells; antibody stored 2 weeks at 40 C. The procedure:
(§1) KG1a cells were detached by incubation with TrypLE reagents (Thermo Fisher), which preserves the integrity of CD93 on the cell surface. Then the cells were incubated with serial diluted anti-CD93 antibodies for 30 minutes at 4° C. After washing by FACS buffer, the cells were incubated with Alexa Fluor 647 conjugated anti-human IgG (Jackson ImmunoResearch) for 30 minutes in 4° C. After washing by FACS buffer twice, the samples were acquired in NovoCyte Flow Cytometer and analyzed by NovoExpress software.
Background: In flow cytometry, cells or beads pass a laser one at a time.

Assay [7] has the same target. The assay is described as follows: flow cytometry titration, KG1a cells. How it is done: as §1
For assay [8] the target is unchanged. The assay is described as follows: summary table, column FACS (CHO-hCD93 cells).

B1: h7F3 (humanized 7F3, VH3+VL3) (antibody, human IgG1, V domains shown)
VH: QVQLVQSGAEVKKPGASVKVSCKASGYTFTDYEMHWVRQAPGQGLEWMGGIDPETGDTAYNQNFKGRVTMTTDTSTSTAYMELRSLTSDDTAVYYCTNYGNLYYYAMDYWGQGTSVTVSS
VL: EIVLTQSPSSLSASVGDRVTITCRASSSVSSSYLHWYQQKPGKAPKLLIYSTSNLAFGVPSRFSGSGSGTSYTFTISSLQPEDIATYYCQQYSGYPLTFGSGTKLEIK
notes: also called humanized 7F3-hIgG1
In the case of B1, the EC50 was 0.195 nM in assay [1]; 1.34 nM in assay [2]; 0.0427 nM in assay [4]; 0.0407 nM in assay [5]; 0.021 nM in assay [6]; 0.024 nM in assay [7]. Besides, the Kd in assay [3] turned out to be 0.472 nM.

B2: h16E4 (humanized 16E4, VH4+VL6) (antibody, V domains shown)
VH: QVQLVQSGAEVKKPGASVKVSCKASGYTFTSYWMHWVRQAPGQGLEWMGEIDPSASYTYYNQKFKGRVTMTRDKSSSTVYMELSSLTSEDSAVYYCARSVYYGNKYFDVWGAGTTVTVSS
VL: DIQMTQSPSTLSASVGDRVTITCKASQSVDYAGDSYMNWYQQKPGKAPKLLIYAASNLESGVPSRFSGSGSGTEFTLTISSLQPDDFATYYCQQTNEDPRTFGGGTKLEIK
notes: Detected with anti-human IgG, so a human Fc
As to B2, the EC50 in assay [1] turned out to be 0.312 nM; in assay [4], 0.033 nM; in assay [8] it was 0.388 nM; in assay [5], 0.051 nM; in assay [6] it was 0.113 nM; in assay [7] it was 0.131 nM. In assay [3], the Kd is 0.416 nM.

B3: 16E4 (hybridoma) (antibody, IgG2a, V domains shown)
VH: QVQLQQPGAELVKPGASVKLSCKASGYTFTSYWMHWVKQRPGQGLEWIGEIDPSASYTYYNQKFKGKATLTVDKSSSTAYMQLSSLTSEDSAVYYCARSVYYGNKYFDVWGAGTTVTVSS
VL: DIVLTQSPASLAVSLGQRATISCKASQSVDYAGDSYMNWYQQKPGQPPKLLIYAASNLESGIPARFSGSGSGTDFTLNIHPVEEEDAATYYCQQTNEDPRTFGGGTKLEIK
notes: also called 16E4 mAb; 16E4 mIgG2a
Turning to B3, the EC50 in assay [2] is 0.2 nM; in assay [4] it was 0.112 nM; in assay [8], 0.59 nM. Moreover, the Kd in assay [3] was found to be 0.334 nM.

One may read the EC50 as the concentration at which the effect is half-maximal. By Kd is commonly meant the free concentration of one partner at which half of the binding sites on the other are occupied at equilibrium, for simple one-to-one binding.
